Source: patent US20210214434A1 (LABORATOIRE FRAN AIS DU FRACTIONNEMENT ET DES …, published 2021)
Residue numbers refer to the chain shown, from its start. In names and notes the source's numbering stands. Each block holds one binder with its values, some of them ahead of it.

Assays:
[1] = biological target: T1, human CD64 receptor expressed by Jurkat cells (Jurkat-CD64) (human, UniProt P12314 16-374); test: flow cytometry competition on Jurkat-CD64 cells, displacement of Rituxan-A488 (25 µg/ml)
T1 construct: whole, on cells; also called hCD64; FcγRI (CD64)

CD32b = biological target: T2, CD32b (UniProt P31994 43-310, limits assumed); test: competition assay, protocol and competitor for CD32b not described
T2 construct: probably on transfected cells as for CD32a
T2 sequence (looked up): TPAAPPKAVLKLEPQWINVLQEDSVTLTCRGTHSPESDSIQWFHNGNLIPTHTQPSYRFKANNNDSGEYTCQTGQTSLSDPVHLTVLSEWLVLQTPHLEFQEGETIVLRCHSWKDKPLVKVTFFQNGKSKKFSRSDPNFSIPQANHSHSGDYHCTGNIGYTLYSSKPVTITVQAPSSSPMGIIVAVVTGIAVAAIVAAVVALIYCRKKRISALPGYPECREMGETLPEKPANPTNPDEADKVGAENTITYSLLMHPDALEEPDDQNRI

[2] = biological target: T3, HisTag hCD16aV receptor (R&D System) (human, UniProt P08637 17-208); test: BLI (Octet), HisTag hCD16aV on anti-Penta-HIS biosensors, 1/1 model; SD 18.1
T3 construct: Captured on anti-Penta-HIS biosensors; also called human FcγRIIIa-V; FcγRIIIa (CD16a); not shown: HisTag
Procedure: (§1) The molecules were tested at concentrations of 1000, 500, 250, 125, 62.5, 31, […] and 0 nM in kinetic buffer.
(§2) The association and dissociation curves (first 5 s) are used to calculate the kinetic constants of association (kon) and dissociation (koff) using a 1/1 association model. KD (nM) is then calculated […].

[3] = biological target: T4, human FcRn receptor expressed by Jurkat cells (Jurkat-FcRn) (human, UniProt P55899 24-365; P61769 21-119); test: flow cytometry competition on Jurkat-FcRn cells, displacement of Rituxan-A488 (25 µg/ml), pH 6
T4 construct: whole, on cells; also called hFcRn
Procedure: The Jurkat-FcRn cells are seeded in a 96-well plate (V bottom) at a concentration of 2.10⁵ cells per well.
(§3) The cells are then washed by adding 100 μl of PBS at pH 6 and centrifuged at 1700 rpm for 3 minutes at 4° C. The supernatant is then removed and 300 μl of cold PBS is added at pH 6.

[4] = biological target: T5, human CD16aH receptor on transfected Jurkat cells (Jurkat-CD16aH) (human, UniProt P08637 17-254); test: flow cytometry competition on Jurkat-CD16aH cells, displacement of mAb 3G8-PE (0.5 µg/ml)
T5 construct: whole, on cells; also called hCD16aH; CD16a-F
Procedure: The Jurkat-CD16aH cells are seeded in a 96-well plate (V bottom) at a concentration of 2.10⁵ cells per well.
The cells are then washed by adding […] of PBS at pH 6 and centrifuged at 1700 rpm for 3 minutes at 4° C. The supernatant is then removed and 300 μl of cold PBS is added at pH 6.

[5] = biological target: T6, human CD32aH receptor on transfected HEK cells (HEK-CD32) (human, UniProt P12318 34-317); test: flow cytometry competition on HEK-CD32 cells, displacement of Rituxan-A488 (30 µg/ml)
T6 construct: whole, on cells; also called hCD32aH; FcγRIIa (CD32a)
T6 sequence (looked up): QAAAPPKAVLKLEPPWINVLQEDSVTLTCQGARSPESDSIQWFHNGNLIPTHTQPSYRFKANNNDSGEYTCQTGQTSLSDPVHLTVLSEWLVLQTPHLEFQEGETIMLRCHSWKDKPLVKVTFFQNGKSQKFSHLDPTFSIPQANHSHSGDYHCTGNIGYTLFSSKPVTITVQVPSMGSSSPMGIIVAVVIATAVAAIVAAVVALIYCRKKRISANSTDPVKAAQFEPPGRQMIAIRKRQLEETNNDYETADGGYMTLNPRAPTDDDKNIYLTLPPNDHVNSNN
Procedure: as §3

[6] = biological target: T7, human CD32aR receptor on transfected HEK cells (HEK-CD32) (human, UniProt P12318 34-317); test: as above
T7 construct: whole, on cells; also called hCD32aR; FcγRIIa (CD32a)
T7 sequence (looked up): T6 sequence (looked up) with H134R
Procedure: as §3

[7] = biological target: T1, human CD64 receptor expressed by Jurkat …; test: cell-based or functional assay
[8] = biological target: biotinylated human FcRn receptor (hFcRn), immobilized on Streptavidin Biosensors (human, UniProt P55899 24-297; P61769 21-119, limits assumed, biotinylated (site not stated)); test: BLI (Octet), biotinylated hFcRn on streptavidin biosensors, pH 6, 1/1 model; SD 0
Procedure: The association and dissociation curves (first 10 s) are used to calculate the kinetic constants of association (kon) and dissociation (koff) using a 1/1 association model. KD (nM) is then calculated […].

[9] = biological target: T8, HisTag hCD32aH receptor (PX therapeutics) (human, UniProt P12318 34-217, limits assumed); test: BLI (Octet), HisTag hCD32aH on anti-Penta-HIS biosensors, 1/1 model; SD 29.7
T8 construct: Captured on anti-Penta-HIS biosensors; also called FcγRIIa (CD32a); not shown: HisTag
T8 sequence (looked up): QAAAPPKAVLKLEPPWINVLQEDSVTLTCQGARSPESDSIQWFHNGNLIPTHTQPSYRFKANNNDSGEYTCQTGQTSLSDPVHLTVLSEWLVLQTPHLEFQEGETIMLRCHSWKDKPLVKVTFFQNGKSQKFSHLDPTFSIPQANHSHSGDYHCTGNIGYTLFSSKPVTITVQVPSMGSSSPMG

[10] = biological target: T3, HisTag hCD16aV receptor (R&D System); test: BLI (Octet), HisTag hCD16aV on anti-Penta-HIS biosensors, 1/1 model; SD 14.1
[11] = biological target: complement proteins, in particular C1q (complement of the young rabbit serum used in the CDC test) (rabbit); test: cell-based or functional assay
[12] = biological target: T3, HisTag hCD16aV receptor (R&D System); test: BLI (Octet), HisTag hCD16aV on anti-Penta-HIS biosensors, 1/1 model; SD 7.7
Procedure: as §1, §2

[13] = biological target: T3, HisTag hCD16aV receptor (R&D System); test: BLI (Octet), HisTag hCD16aV on anti-Penta-HIS biosensors, 1/1 model; SD 10.7
Procedure: as §1, §2

T1 sequence (P12314 16-374): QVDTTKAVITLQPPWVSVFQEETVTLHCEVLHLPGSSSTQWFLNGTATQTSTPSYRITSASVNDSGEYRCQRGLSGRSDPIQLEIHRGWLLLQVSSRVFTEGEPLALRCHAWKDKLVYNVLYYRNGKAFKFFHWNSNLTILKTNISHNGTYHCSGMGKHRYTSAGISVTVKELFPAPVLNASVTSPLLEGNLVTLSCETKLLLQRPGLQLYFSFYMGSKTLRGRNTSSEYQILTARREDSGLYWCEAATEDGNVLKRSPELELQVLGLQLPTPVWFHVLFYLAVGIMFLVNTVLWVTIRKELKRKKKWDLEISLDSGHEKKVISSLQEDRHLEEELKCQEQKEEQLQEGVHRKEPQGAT
T3 sequence (P08637 17-208 F176V limits assumed): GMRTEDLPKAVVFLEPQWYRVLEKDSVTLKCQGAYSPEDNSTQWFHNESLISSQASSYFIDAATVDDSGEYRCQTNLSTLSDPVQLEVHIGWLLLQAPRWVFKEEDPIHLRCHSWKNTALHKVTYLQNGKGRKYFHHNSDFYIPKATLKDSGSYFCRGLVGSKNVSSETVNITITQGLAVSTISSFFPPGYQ
T5 sequence (P08637 17-254): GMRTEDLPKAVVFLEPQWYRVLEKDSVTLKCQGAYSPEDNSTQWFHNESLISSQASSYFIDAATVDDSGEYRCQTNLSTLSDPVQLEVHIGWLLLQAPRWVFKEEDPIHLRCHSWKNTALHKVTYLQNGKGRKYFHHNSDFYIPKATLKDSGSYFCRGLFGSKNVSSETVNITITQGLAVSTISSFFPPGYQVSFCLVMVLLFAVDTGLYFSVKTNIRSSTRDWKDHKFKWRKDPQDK

B1: A3A-184AY_CHO (K334N/P352S/A378V/V397M/N434Y), Fc variant produced in CHO cells (other)
chain: DKTHTCPPCPAPELLGGPSVFLFPPKPKDTLMISRTPEVTCVVVDVSHEDPEVKFNWYVDGVEVHNAKTKPREEQYNSTYRVVSVLTVLHQDWLNGKEYKCKVSNKALPAPIENTISKAKGQPREPQVYTLSPSRDELTKNQVSLTCLVKGFYPSDIVVEWESNGQPENNYKTTPPMLDSDGSFFLYSKLTVDKSRWQQGNVFSCSVMHEALHYHYTQKSLSLSPGK
notes: also called Fc A3A-184AY CHO
IC50 [1]: 84 nM | IC50 (CD32b): 57 nM | Kd [2]: 80.3 nM | IC50 [3]: 13 nM | IC50 [4]: 262 nM | IC50 [5]: 135 nM | IC50 [6]: 176 nM | Inhibition of the secretion of IL-2 of the Jurkat cells transfected with CD64 (IC 25%, nM) [7]: 448 nM | Inhibition of the secretion of IL-2 of the Jurkat cells transfected with CD64 (IC 50%, nM) [7]: 600 nM

B2: Fc variant A3A-184AY (HEK) (K334N/P352S/A378V/V397M/N434Y), produced in HEK293 cells (other)
chain: B1 chain
notes: also called Fc A3A 184AY (HEK); rFc A3A-184AY
Kd [8]: 7.8 nM | Kd [9]: 313 nM | Kd [10]: 132 nM | IC50 (read off the curve) [11]: ~200 nM

B5: Fc MST-HN fragment containing the mutations M252Y/S254T/T256E/H433K/N434F, produced in HEK-293 cells (other, UniProt P01857-1 104-330, looked up, name in EU numbering)
chain: B1 chain with M32Y, S34T, T36E, N114K, S132P, V158A, M177V, H213K, Y214F
IC50 [1]: 494 nM | IC50 [3]: 14 nM | Inhibition of the secretion of IL-2 of the Jurkat cells transfected with CD64 (IC 25%, nM) [7]: 1460 nM | Inhibition of the secretion of IL-2 of the Jurkat cells transfected with CD64 (IC 50%, nM) [7]: < 1950 nM

Results, then the binder that gave them:

IC50 [1]: 70 nM | IC50 (CD32b): 55 nM | Kd [12]: 59.3 nM | IC50 [3]: 15 nM | IC50 [5]: 147 nM | IC50 [6]: 132 nM | Inhibition of the secretion of IL-2 of the Jurkat cells transfected with CD64 (IC 25%, nM) [7]: 442 nM | Inhibition of the secretion of IL-2 of the Jurkat cells transfected with CD64 (IC 50%, nM) [7]: 600 nM
B3: A3A-184EY_CHO (Y296W/K334N/P352S/A378V/V397M/N434Y), Fc variant produced in CHO cells (other)
chain: B1 chain with Y76W
notes: probably a misprint; also called Fc A3A-184EY CHO

IC50 [1]: 87 nM | IC50 (CD32b): 59 nM | Kd [13]: 51.2 nM | IC50 [3]: 12 nM | IC50 [5]: 170 nM
B4: A3A-184AY_TGg, Fc variant A3A-184AY produced in the transgenic goat (other)
chain: B1 chain
